B1: ESRRA (parent)
chain: LGVAQRSLPLQDELAFAEDLVLDE

Variants of: B1
Test: protein stability index of a GFP-peptide fusion (GPS, HEK-293T) (PSI 1-6); higher = more stable
Details: c terminus: a fixed tail appended
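Further: lentivirally expressed fusions sorted by FACS into six bins by GFP to DsRed ratio, PSI derived from sequencing read proportions per bin multiplied by bin number.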

| Variant | protein stability index |
| --- | --- |
| LGVAQRSLPLQDELAFAEDLVLSE | 2.58 |
| LGVAQRSLPLQDELAFAGDLVLDE | 5 |
| LGVAQRSSPLQDELAFAEDLVLDE | 2.83 |
| LGVAQRALPLQDELAFAEDLVLDE | 3.38 |
| LGVAQRSLPLQDELAFAEDLDLDE | 5.76 |
| LGVAQRSLPLQDELAFAEDLMLDE | 4.49 |
| LGVAQWSLPLQDELAFAEDLVLDE | 2.17 |
| LGVAQRSLPLQDELAFAEDHVLDE | 4.81 |
| LGVAQRSLPLQDEGAFAEDLVLDE | 5.46 |
| LGVAQRSLCLQDELAFAEDLVLDE | 4.38 |
| LGVAQRSLPLQDELAFAEFLVLDE | 2.56 |
| LGVAQRSLPLDDELAFAEDLVLDE | 4.92 |
| LGVAQRSLPLQDELAFAEDCVLDE | 2.51 |
| LGVAQRSLPMQDELAFAEDLVLDE | 3.54 |
| LGVAQRQLPLQDELAFAEDLVLDE | 3.18 |
| LGVAQRSLPLNDELAFAEDLVLDE | 4.12 |
| LGVAQRSLPLQDELAFAEDLVHDE | 3.52 |
| LGVAQRSLPLQCELAFAEDLVLDE | 1.92 |
| LGVAQRSLPLQDELAFAEDLVFDE | 3.95 |
| LGVAQRSLPCQDELAFAEDLVLDE | 5.41 |
| GGVAQRSLPLQDELAFAEDLVLDE | 3.19 |
| LGVAQRSLPLQDELAFAEDLVTDE | 5.18 |
| LGVAQRSLPTQDELAFAEDLVLDE | 5.47 |
| LGVAQRSLPLQDELAFAEDLVLLE | 2.64 |

| Variant | protein stability index |
| --- | --- |
| LGVAQRSLPLQDELAFAEDEVLDE | 3.12 |
| LGVAQRSLPLQDELAQAEDLVLDE | 2.68 |
| LGVAPRSLPLQDELAFAEDLVLDE | 3.39 |
| LGVAQRSLPLQDEHAFAEDLVLDE | 5.43 |
| LGKAQRSLPLQDELAFAEDLVLDE | 2.39 |
| LGVAQRSLPLQDKLAFAEDLVLDE | 4.95 |
| LGVAQRSLPLYDELAFAEDLVLDE | 3.12 |
| LGVAQRSLPLQDELAFAEDLVLCE | 2.38 |
| LGVAQRSLPLQDELAFAWDLVLDE | 3.11 |
| LTVAQRSLPLQDELAFAEDLVLDE | 2.91 |
| LGVAQRSLPLQTELAFAEDLVLDE | 1.86 |
| LGVAQRSLPLQDELAPAEDLVLDE | 5.83 |
| LGVALRSLPLQDELAFAEDLVLDE | 2.07 |
| LGVAQRSLPLQDELAFAEDLVWDE | 3.85 |
| LGVAQRSLPLQDELAFAEDLVLDC | 1.66 |
| LGVAWRSLPLQDELAFAEDLVLDE | 2.07 |
| LGCAQRSLPLQDELAFAEDLVLDE | 2.86 |
| LGVAQRSLPLQIELAFAEDLVLDE | 1.74 |
| LGVAQRWLPLQDELAFAEDLVLDE | 1.78 |
| LGVAQRSLPLQDELAFAEDSVLDE | 4.4 |
| QGVAQRSLPLQDELAFAEDLVLDE | 3.21 |
| LGVAQRSLPLQDELAFAEDLVLDM | 2.95 |
| LGVAQRSLPLQPELAFAEDLVLDE | 4.59 |
| FGVAQRSLPLQDELAFAEDLVLDE | 2.81 |

| Variant | protein stability index |
| --- | --- |
| LGVAQRSLPLQDELAFATDLVLDE | 4.81 |
| LGVACRSLPLQDELAFAEDLVLDE | 1.76 |
| LGVAQRSTPLQDELAFAEDLVLDE | 3.24 |
| LGVAQRSLPLQDELACAEDLVLDE | 3.86 |
| PGVAQRSLPLQDELAFAEDLVLDE | 3.63 |
| LGTAQRSLPLQDELAFAEDLVLDE | 2.92 |
| LGVAQRSLPLSDELAFAEDLVLDE | 4.37 |
| LCVAQRSLPLQDELAFAEDLVLDE | 2.69 |
| LGVAQRSLPLQDELAFAETLVLDE | 1.91 |
| LGVAQRSRPLQDELAFAEDLVLDE | 2.02 |
| LGVAGRSLPLQDELAFAEDLVLDE | 2.26 |
| LGVAQRSLPLQDELAFAEYLVLDE | 2.03 |
| LGVAQRSLPLQSELAFAEDLVLDE | 2.01 |
| LGVAQDSLPLQDELAFAEDLVLDE | 4.23 |
| LGVAQRSLPLQDECAFAEDLVLDE | 5.43 |
| LGVAQRSLPLRDELAFAEDLVLDE | 2.94 |
| LGVAQRSLPLQDELDFAEDLVLDE | 4.77 |
| LGVAQRSLPLQDEKAFAEDLVLDE | 5.15 |
| LGVAQRSLPLQLELAFAEDLVLDE | 1.88 |
| LGVAQRSLPLQDELIFAEDLVLDE | 4.41 |
| LGVAMRSLPLQDELAFAEDLVLDE | 2.91 |
| LGVAQRSLPLQDELTFAEDLVLDE | 3.26 |
| LGVAQRSLPLQDELAYAEDLVLDE | 2.93 |
| LGIAQRSLPLQDELAFAEDLVLDE | 2.21 |

| Variant | protein stability index |
| --- | --- |
| LGVAQRSLPLQDELAFAEDLVLHE | 2.34 |
| LGVVQRSLPLQDELAFAEDLVLDE | 2.39 |
| LGVAQRSLPLQDELAFAQDLVLDE | 4.34 |
| LGVMQRSLPLQDELAFAEDLVLDE | 2.58 |
| LGVAQGSLPLQDELAFAEDLVLDE | 2.56 |
| LGVAQRSLPAQDELAFAEDLVLDE | 5.58 |
| IGVAQRSLPLQDELAFAEDLVLDE | 2.2 |
| LGVAQRSLPLQDELHFAEDLVLDE | 4.39 |
| LGVAQRSLPLQDELAFAEDLVVDE | 4.14 |
| LGVAKRSLPLQDELAFAEDLVLDE | 2.39 |
| LGVAQRSLPLQDELAFAEDLVLDD | 4.07 |
| LGVAQRDLPLQDELAFAEDLVLDE | 3.25 |
| LGVAQRSPPLQDELAFAEDLVLDE | 3.71 |
| LGVAQRPLPLQDELAFAEDLVLDE | 3.14 |
| LGVIQRSLPLQDELAFAEDLVLDE | 1.59 |
| LGVFQRSLPLQDELAFAEDLVLDE | 2.23 |
| LGVATRSLPLQDELAFAEDLVLDE | 2.39 |
| LGVAQRSLPLQDELAFAEDKVLDE | 4.98 |
| LGVAQRSLPLQDELAFAERLVLDE | 2.01 |
| LGVAQRSLPLQDELAFAEDLSLDE | 4.43 |
| LGVAQRSLPLQDELKFAEDLVLDE | 2.3 |
| LGVAQRSYPLQDELAFAEDLVLDE | 1.86 |

From the supplement of paper PMC10567573
